Among the data in the supplement of paper PMC10567573 are protein stability index values, retold here.

The labels stand for the following.
B1: INTS3 (parent)
chain: DLNSKGKKREFRFHPIKETVVEEP
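Also: lentivirally expressed fusions sorted by FACS into six bins by GFP to DsRed ratio, PSI derived from sequencing read proportions per bin multiplied by bin number.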

Variants of B1 are the subject of the series. Description: protein stability index of a GFP-peptide fusion (GPS, HEK-293T) (PSI 1-6); higher = more stable. As to conditions: c terminus: a fixed tail appended.
Take DLNSKGKKREFRFHPIKECVVEEP [T19C]: the protein stability index is 2.34. The result for DLNSKGKKREFRFHPIKERVVEEP [T19R] reads 2.04; that for DLNSKGKKREFRFHPIKEVVVEEP [T19V], 1.86; that for DLNSKGKKREFRFHPIKEDVVEEP [T19D], 2.87.

DLNSKGKKREFRFHPIKETVVIEP [E22I]: the protein stability index amounted to 2.21. The result for DLNSKGKKREFRFHPIKETVVQEP [E22Q] reads 1.64; that for DLNSKGKKREFRFHPIKETVVSEP [E22S], 1.92. The result for DLNSKGKKREFRFHPIKETVVPEP [E22P] reads 1.96; that for DLNSKGKKREFRFHPIKETVVCEP [E22C], 2.06; that for DLNSKGKKREFRFHPIKETVVMEP [E22M], 1.57. The result for DLNSKGKKREFRFHPIKETVVFEP [E22F] reads 2.01; that for DLNSKGKKREFRFHPIKETVVKEP [E22K], 2.1. For the variant DLNSKGKKREFRFHPIKETVVYEP [E22Y], the protein stability index came to 1.87.

Turning to DLNSKGKKREFRFHPIKETVVREP [E22R], the protein stability index turned out to be 1.75. As for DLNSKGKKREFRFHPIKETVVNEP [E22N], the protein stability index worked out at 1.69. The result for DLNSKGKKREFRFHPIKETVVAEP [E22A] reads 2.22; that for DLNSKGKKREFRFHPIKETVVTEP [E22T], 1.79; that for DLNSKGKKREFRFHPIKETVVVEP [E22V], 1.69. The result for DLNSKGKKREFRFHPIKETVVGEP [E22G] reads 1.79; that for DLNSKGKKREFRFHPIKETVVWEP [E22W], 2.11; that for DLNSKGKKREFRFHPIKETVVDEP [E22D], 2.07.

Regarding DLNSKGKKREFRFHPIKETVVLEP [E22L], the protein stability index turned out to be 1.91. The figure for DLNSKGKKREFRFHPIKETVVHEP [E22H] is 1.91; for DLNSKGKKREFRFHPIKETVFEEP [V21F] it is 1.96; for DLNSKGKKREFRFHPIKETVEEEP [V21E] it is 3.15. The figure for DLNSKGKKREFRFHPIKETVKEEP [V21K] is 2.01. Take DLNSKGKKREFRFHPIKETVGEEP [V21G]: the protein stability index is 1.97. The result for DLNSKGKKREFRFHPIKETVQEEP [V21Q] reads 2.06; that for DLNSKGKKREFRFHPIKETVIEEP [V21I], 1.99; that for DLNSKGKKREFRFHPIKETVYEEP [V21Y], 2. The figure for DLNSKGKKREFRFHPIKETVPEEP [V21P] is 2.22; for DLNSKGKKREFRFHPIKETVWEEP [V21W] it is 1.64. The figure for DLNSKGKKREFRFHPIKETVCEEP [V21C] is 2.49. For the variant DLNSKGKKREFRFHPIKETVMEEP [V21M], the protein stability index was 2.08. For DLNSKGKKREFRFHPIKETVTEEP [V21T], the protein stability index turned out to be 2.62. The result for DLNSKGKKREFRFHPIKETVNEEP [V21N] reads 2.36; that for DLNSKGKKREFRFHPIKETVHEEP [V21H], 2.12; that for DLNSKGKKREFRFHPIKETVDEEP [V21D], 2.71. The result for DLNSKGKKREFRFHPIKETVREEP [V21R] reads 1.6; that for DLNSKGKKREFRFHPIKETVLEEP [V21L], 2.54; that for DLNSKGKKREFRFHPIKETVAEEP [V21A], 2.01. The result for DLNSKGKKREFRFHPIKETVSEEP [V21S] reads 2.1. In the case of DLNSKGKKREFRFHPIKETVVEEQ [P24Q], the protein stability index stood at 2.03. The result for DLNSKGKKREFRFHPIKETVVEEH [P24H] reads 2.36; that for DLNSKGKKREFRFHPIKETVVEEW [P24W], 2.84. The result for DLNSKGKKREFRFHPIKETVVEES [P24S] reads 2.22. The result for DLNSKGKKREFRFHPIKETVVEEA [P24A] reads 2.2. Regarding DLNSKGKKREFRFHPIKETVVEEF [P24F], the protein stability index was found to be 2.81. As for DLNSKGKKREFRFHPIKETVVEED [P24D], the protein stability index was found to be 2.4. The result for DLNSKGKKREFRFHPIKETVVEEE [P24E] reads 2.6; that for DLNSKGKKREFRFHPIKETVVEER [P24R], 2.19. The figure for DLNSKGKKREFRFHPIKETVVEET [P24T] is 2.38; for DLNSKGKKREFRFHPIKETVVEEI [P24I] it is 1.68.

Turning to DLNSKGKKREFRFHPIKETVVEEV [P24V], the protein stability index is 2.46. The result for DLNSKGKKREFRFHPIKETVVEEG [P24G] reads 2.25; that for DLNSKGKKREFRFHPIKETVVEEK [P24K], 2.08. The result for DLNSKGKKREFRFHPIKETVVEEM [P24M] reads 1.92; that for DLNSKGKKREFRFHPIKETVVEEY [P24Y], 2.32; that for DLNSKGKKREFRFHPIKETVVEEN [P24N], 2. The result for DLNSKGKKREFRFHPIKETVVEEC [P24C] reads 2.54; that for DLNSKGKKREFRFHPIKETVVEEL [P24L], 2.35; that for DLNSKGKKREFRFHPIQETVVEEP [K17Q], 3.01. Consider DLNSKGKKREFRFHPIVETVVEEP [K17V], for which the protein stability index was 2.69.

For DLNSKGKKREFRFHPIWETVVEEP [K17W], the protein stability index was determined as 1.8. The result for DLNSKGKKREFRFHPIEETVVEEP [K17E] reads 3.48; that for DLNSKGKKREFRFHPITETVVEEP [K17T], 2.77; that for DLNSKGKKREFRFHPIAETVVEEP [K17A], 2.5. The result for DLNSKGKKREFRFHPICETVVEEP [K17C] reads 2.67; that for DLNSKGKKREFRFHPIMETVVEEP [K17M], 2.69; that for DLNSKGKKREFRFHPIDETVVEEP [K17D], 3.93. As for DLNSKGKKREFRFHPIPETVVEEP [K17P], the protein stability index amounted to 1.98. The figure for DLNSKGKKREFRFHPINETVVEEP [K17N] is 2.6; for DLNSKGKKREFRFHPIHETVVEEP [K17H] it is 2.31; for DLNSKGKKREFRFHPISETVVEEP [K17S] it is 3.25. The figure for DLNSKGKKREFRFHPILETVVEEP [K17L] is 3.26. Consider DLNSKGKKREFRFHPIIETVVEEP [K17I], for which the protein stability index turned out to be 1.94.

Turning to DLNSKGKKREFRFHPIYETVVEEP [K17Y], the protein stability index came out at 2.

Take DLNSKGKKREFRFHPIRETVVEEP [K17R]: the protein stability index is 1.69. As for DLNSKGKKREFRFHPIFETVVEEP [K17F], the protein stability index came out at 2.05. Consider DLNSKGKKREFRFHPIGETVVEEP [K17G], for which the protein stability index came out at 2.91.
